Target: Q394X truncation of the ER-tethered Ste6 NBD2 chimera (yeast)
Assay: co-IP

Hsp104 (from UniProt P31539 1-908) (natural protein)
fold above background: 2 fold

— publication PMC5912696
